Measured values taken from US20230374078A1.

Biological target: variant of repaired and stabilized Du422 construct (HIV161818) with the additional K655I substitution (HIV-1 clade C strain Du422)
Assay: assay not named in the sentence (data not shown); trimer yield by AlphaLISA elsewhere

mAb PGT145 (antibody)
trimer yield (PGT145 AlphaLISA signal), factor over the variant of SEQ ID NO: 25 without K655I: 1.3 fold
